Results as given in patent US6881547B1, “Methods and reagents for treating autoimmune disorders” (priority 2001, dated 2005).

T1: GPpep1
T1 chain: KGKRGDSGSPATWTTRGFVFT

T2: native bovine α3(IV)NC1 domain (bovine GP antigen), Q28084
T2 chain: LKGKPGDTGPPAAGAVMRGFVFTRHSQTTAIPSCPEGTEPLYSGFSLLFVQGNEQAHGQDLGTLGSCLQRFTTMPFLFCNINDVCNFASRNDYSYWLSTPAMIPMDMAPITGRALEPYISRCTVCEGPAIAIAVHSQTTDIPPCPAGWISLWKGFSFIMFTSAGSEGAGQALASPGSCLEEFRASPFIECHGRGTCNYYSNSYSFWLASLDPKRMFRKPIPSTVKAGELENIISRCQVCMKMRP

T3: prokaryotic human recombinant α3(IV)NC1
T3 chain: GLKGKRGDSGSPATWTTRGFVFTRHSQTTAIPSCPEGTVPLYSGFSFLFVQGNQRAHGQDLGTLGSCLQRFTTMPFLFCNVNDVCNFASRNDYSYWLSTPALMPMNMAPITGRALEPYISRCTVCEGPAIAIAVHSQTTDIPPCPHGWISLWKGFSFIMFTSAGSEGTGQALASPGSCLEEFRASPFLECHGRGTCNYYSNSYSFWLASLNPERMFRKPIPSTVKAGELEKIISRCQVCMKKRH

B1: FLAG-tagged recombinant GPBPΔ26 (rGPBPΔ26) (enzyme)
chain: DYKDDDDKMSDNQSWNSSGSEEDPETESGPPVERCGVLSKWTNYIHGWQDRWVVLKNNALSYYKSEDETEYGCRGSICLSKAVITPHDFDECRFDISVNDSVWYLRAQDPDHRQQWIDAIEQHKTESGYGSESSLRRHGSMVSLVSGASGYSATSTSSFKKGHSLREKLAEMETFRDILCRQVDTLQKYFDACADAVSKDELQRDKVVEDDEDDFPTTRSDGDFLHSTNGNKEKLFPHVTPKGINGIDFKGEAITFKATTAGILATLSHCIELMVKREDSWQKRLDKETEKKRRTEEAYKNAMTELKKKSHFGGPDYEEGPNSLINEEEFFDAVEAALDRQDKIEEQSQSEKVRLHWPTSLPSGDAFSSVGTHRFVQKVEEMVQNHMTYSLQDVGGDANWQLVVEEGEMKVYRREVEENGIVLDPLKATHAVKGVTGHEVCNYFWNVDVRNDWETTIENFHVVETLADNAIIIYQTHKRVWPASQRDVLYLSVIRKIPALTENDPETWIVCNFSVDHDSAPLNNRCVRAKINVAMICQTLVSPPEGNQEISRDNILCKITYVANVNPGGWAPASVLRAVAKREYPKFLKRFTSYVQEKTAGKPILF
notes: From plasmid pHIL-FLAG-n4′Δ26, expressed in Pichia pastoris
B2: FLAG-tagged recombinant GPBP (rGPBP) (enzyme)
chain: DYKDDDDKMSDNQSWNSSGSEEDPETESGPPVERCGVLSKWTNYIHGWQDRWVVLKNNALSYYKSEDETEYGCRGSICLSKAVITPHDFDECRFDISVNDSVWYLRAQDPDHRQQWIDAIEQHKTESGYGSESSLRRHGSMVSLVSGASGYSATSTSSFKKGHSLREKLAEMETFRDILCRQVDTLQKYFDACADAVSKDELQRDKVVEDDEDDFPTTRSDGDFLHSTNGNKEKLFPHVTPKGINGIDFKGEAITFKATTAGILATLSHCIELMVKREDSWQKRLDKETEKKRRTEEAYKNAMTELKKKSHFGGPDYEEGPNSLINEEEFFDAVEAALDRQDKIEEQSQSEKVRLHWPTSLPSGDAFSSVGTHRFVQKPYSRSSSMSSIDLVSASDDVHRFSSQVEEMVQNHMTYSLQDVGGDANWQLVVEEGEMKVYRREVEENGIVLDPLKATHAVKGVTGHEVCNYFWNVDVRNDWETTIENFHVVETLADNAIIIYQTHKRVWPASQRDVLYLSVIRKIPALTENDPETWIVCNFSVDHDSAPLNNRCVRAKINVAMICQTLVSPPEGNQEISRDNILCKITYVANVNPGGWAPASVLRAVAKREYPKFLKRFTSYVQEKTAGKPILF
modifications: phosphoserine, phosphothreonine and phosphotyrosine present, sites not given
notes: Made in Pichia pastoris or 293 cells; also called FLAG-n4′

Experiments:
PKA = PKA (Bos taurus, UniProt P00517); assay: PKA phosphorylation of native GP antigen (α3(IV)NC1 monomer or hexamer) in the presence of C-terminal peptides; format: biochemical; conditions: 0.1 μM ATP, 10 nmol peptide
Protocol: FIG. 16. Phosphorylation of GP alternative splicing products by PKA. In left panel, equimolecular amounts of rGP (lanes 1), rGPΔV (lanes 2), rGPΔIII (lanes 3) or rGPΔIII/IV/V (lanes 4), equivalent to 500 ng of the GP were phosphorylated at the indicated ATP concentrations. One-fifth of the total phosphorylation reaction mixture was separated by gel electrophoresis and transferred to PVDF, autoradiographed (shown) and the proteins blotted with M3/1, a specific monoclonal antibody recognizing all four species (shown) or using antibodies specific for each individual C-terminal region (not shown). […] Right panel: purified α3(IV)NC1 domain or hexamer was phosphorylated with PKA and 0.1 μM ATP in the absence (lanes 1) or in the presence of 10 nmol of peptides representing the C-terminal region of either GPΔIII (lanes 2) or GPΔIII/IV/V (lanes 3). Where indicated the phosphorylation mixtures of purified α3(IV)NC1 domain were V8 digested and immunoprecipitated with antibodies specific for the N terminus of the human α3(IV)NC1 domain (3). Bars and numbers indicate the position and sizes (kDa) of the molecular weight markers.
Phosphorylation studies. Phosphorylation studies were essentially done as described above (see also 3 and 11). In some experiments, the substrates were in-blot renatured and then, phosphorylated for 30 min at room temperature by overlaying 100 μl of phosphorylation buffer containing 0.5 μg of RGPBP. Digestion with V8 endopeptidase and immunoprecipitation were performed as described in (3).
Regulation of the phosphorylation of the human GP antigen by alternative splicing. We produced bacterial recombinant proteins representing the primary antigen (GP) or the individual alternative products GPΔV (SEQ ID NO:46), GPΔIII (SEQ ID NO:48) and GPΔIII/IV/V (SEQ ID NO:50), and we tested their ability to be phosphorylated by PKA (FIG. 16, left panel). […] Accordingly, the differences observed in phosphorylation for the full polypeptides also existed among the individual N-terminal regions, as determined after specific V8 digestion and immunoprecipitation (not shown). […]

GPpep1 = molecular target: T1, GPpep1
[1] = molecular target: T2, native bovine α3(IV)NC1 domain (bovine …)
[2] = molecular target: T3, prokaryotic human recombinant α3(IV)NC1
[3] = molecular target: the molecule itself; assay: gel filtration HPLC and analytical centrifugation
Protocol: FIG. 11. rGPBP and rGPBPΔ26 form very active high molecular weight aggregates. About 300 μg of rGPBP (A) or rGPBPΔ26 (B) were subjected to gel filtration HPLC as described under Material and Methods. Vertical arrowheads and numbers respectively indicate the elution profile and molecular mass (kDa) of the molecular weight standards used. Larger aggregates eluted in the void volume (I), and the bulk of the material present in the samples eluted in the fractionation range of the column as a second peak between the 669 and 158 kDa markers (II). Fifteen microliters of the indicated minute fractions were subjected to SDS-PAGE and Coomasie blue staining. Five microliters of the same fractions were in vitro phosphorylated as described in Materials and Methods, and the reaction stopped by boiling in SDS sample buffer. The fractions were loaded onto SDS-PAGE, transferred to PVDF and autoradiographed for 1 or 2 hours using Kodak X-Omat films and blotted using anti-FLAG monoclonal antibodies (Sigma).
Northern hybridization studies Pre-made human multiple-tissue and tumor cell-line Northern Blots (CLONTECH) were probed with a cDNA containing the 78-bp exon present only in GPBP or with a cDNA representing both isoforms. […] The material was eluted from the column at 0.5 ml/min, monitored at 220 nm and minute fractions collected. […]

| Molecule | induction of GP antigen phosphorylation by PKA (22 kDa conformer of α3(IV)NC1) (PKA) | trans-phosphorylation activity with 5 nmol GPpep1 (GPpep1) | conformers and oligomers after DTT consumption, Western blot [1] | disruption of disulfide-based aggregates, Western blot [2] | binding result [3] |
| --- | --- | --- | --- | --- | --- |
| QRAHGQDLDALFVKVLRSP [SEQ ID NO: 43, synthetic peptide representing the C-terminal region of GPΔIII] | induced the phosphorylation of a single polypeptide |  |  |  |  |
| QRAHGQDLESLFHQL [SEQ ID NO:44, synthetic peptide representing the C-terminal region of GPΔIII/IV/V] | induced the phosphorylation of a single polypeptide |  |  |  |  |
| B1 |  | the reduced in-solution auto- and trans-phosphorylation activities displayed by rGPBPΔ26 | Essentially the same results were obtained when blotting the samples that contained GPBPΔ26 | GPBP and, to a lesser extent GPBPΔ26 disrupted disulfide-based high molecular weight aggregates characteristic of recombinant material representing human α3(IV)NC1 produced in bacteria | binds |
| B2 |  |  |  |  | binds |
